Our source for the binding result and fraction of the T cells that bound the dextramers values is patent US20250222032A1 (published 2025).

Experiment [1] concerns the target T1, RAS G12D (KRAS, also HRAS and NRAS) peptide on HLA-A*11:01 (human).
T1 peptide: VVGADGVGK
Nature of the experiment: cytokine release.

In experiment [2] the target is T2, RAS G12D (KRAS, also HRAS and NRAS) peptide on HLA-A*11:01 (human).
T2 peptide: VVVGADGVGK
The experiment can be described thus: cytokine release.

For experiment [3], the target named is T3, RAS G12C peptide on HLA-A*11:01 (human).
T3 peptide: VVVGACGVGK
Nature of the experiment: cytokine release.

The target in experiment [4] is dextramers composed of HLA-A*11:01 complexes loaded with the RAS-WT peptide (human). Nature of the experiment: dual dextramer labeling of TCR T3 transduced T cells, flow cytometry. Background: A flow cytometer gives signals particle by particle.
Experiment [5] addresses T4, RAS wild type (KRAS, also HRAS and NRAS) peptide on HLA-A*11:01 (human).
T4 peptide: VVVGAGGVGK
The experiment can be described thus: multimer staining.

B1: TCR T3 (TCR, V domains shown)
Valpha: GQQLNQSPQSMFIQEGEDVSMNCTSSSIFNTWLWYKQDPGEGPVLLIALYKAGELTSNGRLTAQFGITRKDSFLNISASIPSDVGIYFCAGRREGAQKLVFGQGTRLTINP
Vbeta: GAGVSQSPRYKVAKRGQDVALRCDPISGHVSLFWYQQALGQGPEFLTYFQNEAQLDKSGLPSDRFFAERPEGSVSTLKIQRTQQEDSAVYLCASSSTLMGVNIQYFGAGTRLSVL
On to B1, for which the binding result in experiment [1], in experiment [2], in experiment [3] and in experiment [5] was “recognises” in each case. The same molecule came in with a fraction of the T cells that bound the dextramers in experiment [4] of 60%.
